Columns and labels:
FGFR1 = molecular target: T1, FGFR1 (Homo sapiens, UniProt P11362); assay: FGF-2 intracellular signaling pathway in HUVECs (WB p-FGFR1, p-ERK1/2); type: cell-based
T1 construct: host or cells: HUVECs (pooled donor)
Protocol: (§1) Human umbilical vein cord (HUVECs) (pooled donor, LONZA, Allendale, New Jersey) were grown to 70-80% confluence for each experiment (P2-P4) in a T-75 cell culture flask using complete media (Endo GRO-VEGF Complete Culture Media Kit, Millipore) supplemented with 1% penicillin-streptomycin. Media was changed every 3 days.
Treatments were prepared by dissolving the co-assembled PAs in media without serum. The total concentration of FGF2 PAs per treatment was 0.5 μM. FGF-2 native protein (Peprotech) was resuspended and used at 0.25 nM. For western blot experiments, HUVEC were cultured in 12 well plates at a density of approximately 150,000 cells/well for 2 days in vitro before being treated. Treatments were added for 2 h-2 days in vitro before cell lysates were harvested or cells were fixed. For PA coatings, PAs were painted on the coverslips (German Glass, Chemglass Life Science) or tissue culture plates as described in the Co-assembled PA preparation section. Three replicates per condition and three independent experiments were carried out for all conditions investigated.
(§2) RIPA buffer (Thermofisher) with a cocktail of Halt Protease and Phosphatase Inhibitors (Thermofisher) was used to extract protein from in vitro and in vivo samples. For in vivo studies, spinal cord tissue was then sonicated using a horn sonicator (Branson) to break up the tissue. […]

FGFR1 and ITGB1 = molecular target: T2, FGFR1 and ITGB1 (Homo sapiens, UniProt P11362); assay: p-FGFR1 and active ITGB1 in hNPCs on co-assembled PA coatings (WB); type: cell-based
T2 construct: endogenous in cells; host or cells: hNPCs differentiated from human embryonic stem cells HUES 64, seeded on co-assembled PA coatings
Protocol: (§3) For IKVAV PA treatments, hNPCs were cultured on ornithine coatings (German Glass, Chemglass Life Science) in 6 well and 24 well plates at a density of 500,000 cells/well and 80,000 cells/well respectively. hNPCs were treated with […] of IKVAV PAs ([PA]=6 mM, [KCl]=3 mM, [NaCl]=150 mM) or recombinant laminin protein (10 mg/mL) in solution. IKVAV PA2 and IKVAV PA5 were also mixed with 5 mM CaCl2) at a ratio PA:CaCl2) 6:1 to treat hNPCs. For 2D experiments, hNPCs were cultured on the different IKVAV PAs or laminin coatings in 6 well and 24 well plates at densities mentioned above. For co-assembled experiments, hNPCs were cultured on the different co-assembled PA coatings in 6 well and 24 well plates at a density of 400,000 cells/well and 50,000 cells/well respectively.
(§4) hNPCs were fed 4 times a week with DMEM: F12+N2^+B27 medium with hyclone penicillin-streptomycin and ascorbic acid. After 24 h, 72 h 1- or 2-weeks in vitro, cell lysates were harvested or fixed for WB or ICC, respectively. Three replicates per condition and at least three independent experiments were carried out for all conditions investigated.
as §2

[1] = system: human umbilical vein vascular endothelial cells (HUVECs); assay: HUVEC branching / capillary network formation; type: cell-based; conditions: within 48 h of culture
Protocol: as §1
Treatments were prepared by dissolving the co-assembled PAs in media without serum. The total concentration of FGF2 PAs per treatment was 0.5 μM. FGF-2 native protein (Peprotech) was resuspended and used at 0.25 nM. For western blot experiments, HUVEC were cultured in 12 well plates at a density of approximately 150,000 cells/well for 2 days in vitro before being treated. Treatments were added for 2 h-2 days in vitro before cell lysates were harvested or cells were fixed. […]
To assess in vitro tubulogenesis and in vivo angiogenesis, an ImageJ (Fiji) script was established to automatically calculate 1) area fraction of blood vessels, 2) blood vessels length, and 3) number of branches. Images were processed, binarized and analyzed. Newly generated blood vessels in vivo were identified by quantifying the amount of CD31/BrdU double-positive cells within the region of interest. […] The quantified cross sections were chosen as the first serial cross sections within the lesion that had DiI staining.

hNPCs = assay: hNPC attachment, proliferation and phenotype on co-assembled PA coatings (EdU, SOX-2, PAX6); type: cell-based, human
Text: Neural progenitor cells (NPCs) were differentiated from human embryonic stem cells HUES 64 (Harvard University) (see FIG. 2C). In short, 70% confluent stem cell cultures grown in Matrigel (Thermo Fisher) coated plates with mTESR medium (STEMCELL Technologies), were switched to N2B27 medium (50% DMEM: F12, 50% Neurobasal, supplemented with NEAA, Glutamax, N2 and B27; Gibco) containing dual SMAD inhibitors (SB431542, DNSK International and LDN-193189, Tocris) for 12 days to induce the generation of neural progenitors. Neuralization was enhanced by supplementing medium with laminin from day 5 to 12. Next, neural rosettes were dissociated with neural rosette selection reagent (STEMCELL Technologies) to obtain NPCs, which are expanded in N2B27 (Gibco) medium supplemented with bFGF (Millipore). For experimentation in the different PA platforms, NPCs were dissociated with Accutase (Innovative Cell technology), and cultured in the distinct platforms with DMEM: F12+N2+B27 medium with hyclone penicillin-streptomycin (GE Healthcare) and ascorbic acid (0.2 μg/mL; Sigma-Aldrich).
as §3, §4
For the hNPCs proliferation assay, 2 μM of the thymidine analog 5-ethynyl-2′-deoxyuridine (EdU, Thermo Fisher) was incorporated into the culture medium for 24 h. Cells were fixed at the indicated time points in 4% paraformaldehyde (PFA) for 15 min at RT. After fixation, samples were washed in PBS twice and then stained with Click-iT™ EdU Cell Proliferation Kit containing 11 mM CuSO4 (from 50 mM stock) and 1 μg/mL of Alexa Fluor-555 azide (from 0.5 mg/mL, Thermo Fisher) for 30 minutes at RT in the dark. The staining cocktail was then removed, and cells were washed with PBS. Then, hNPCs were counterstained with anti-rabbit SOX-2 antibody following the immunofluorescence protocol described below and 4′, 6-diamidino-2-phenylindole (DAPI, Thermo Fisher) at 5 μg/mL in PBS for 20 min at RT. The cells were then washed with PBS and mounted with Immu-Mount (Fisher Scientific) for imaging.
For immunofluorescence, fixed primary cultures or free-floating tissue sections (40 m Thick) were incubated in blocking buffer containing 0.02% Triton-X (Sigma-Aldrich), 1% NHS (Gibco) and PBS 1× (Gibco). Samples were incubated with primary antibodies over night at 4° C. Alexa-488, Alexa-555 and/or Alexa-647 (1:500, Thermofisher) were used as secondary antibodies. DAPI (1:500, Thermofisher) was used to stain nuclei. […]

T1 sequence (P11362 22-822): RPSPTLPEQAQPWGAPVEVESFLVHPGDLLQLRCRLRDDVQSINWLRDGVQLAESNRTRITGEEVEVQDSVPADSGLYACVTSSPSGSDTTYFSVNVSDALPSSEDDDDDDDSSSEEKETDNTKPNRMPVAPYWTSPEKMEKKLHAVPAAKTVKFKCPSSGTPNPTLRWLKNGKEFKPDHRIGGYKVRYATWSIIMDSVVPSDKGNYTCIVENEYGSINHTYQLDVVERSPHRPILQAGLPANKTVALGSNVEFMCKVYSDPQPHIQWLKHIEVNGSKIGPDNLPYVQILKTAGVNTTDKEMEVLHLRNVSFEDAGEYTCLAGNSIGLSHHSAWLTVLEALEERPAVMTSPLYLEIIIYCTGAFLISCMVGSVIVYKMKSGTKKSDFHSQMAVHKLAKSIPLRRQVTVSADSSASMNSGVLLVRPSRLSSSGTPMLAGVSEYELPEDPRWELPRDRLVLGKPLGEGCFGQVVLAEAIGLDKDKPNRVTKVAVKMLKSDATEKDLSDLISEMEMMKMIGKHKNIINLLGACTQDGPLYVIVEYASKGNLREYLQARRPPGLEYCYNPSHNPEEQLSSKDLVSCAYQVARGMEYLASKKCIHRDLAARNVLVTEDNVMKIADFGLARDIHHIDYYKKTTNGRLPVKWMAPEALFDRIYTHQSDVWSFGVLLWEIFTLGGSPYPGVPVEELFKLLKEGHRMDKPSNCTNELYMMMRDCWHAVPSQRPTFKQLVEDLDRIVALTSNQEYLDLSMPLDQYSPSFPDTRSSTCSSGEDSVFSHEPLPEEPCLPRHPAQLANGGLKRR
T2 sequence (P11362 22-822): as above

Substance: native FGF-2: FGF-2 native protein (Peprotech), positive control
- levels of p-FGFR1 and downstream p-ERK1/2 (FGFR1): high levels
- P-FGFR-1 expression (FGFR1 and ITGB1): highly expressed
- branching and vessel-like capillary network formation [1]: extensive branching and formation of vessel-like capillary networks
- percentage of proliferating EdU+ and SOX2+ cells (hNPCs): increased

From US20240325548A1, “DYNAMIC BIOACTIVE SCAFFOLDS AND THERAPEUTIC USES THEREOF AFTER CNS INJURY” (Northwestern University, priority 2021, published 2024)
